T1: IL-17 (Homo sapiens, UniProt Q16552 Q16552:24-155)
T1 sequence: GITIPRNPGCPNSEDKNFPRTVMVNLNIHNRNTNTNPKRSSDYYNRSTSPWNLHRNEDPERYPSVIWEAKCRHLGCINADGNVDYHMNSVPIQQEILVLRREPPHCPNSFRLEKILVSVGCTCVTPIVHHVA

B1: aptamer No. 90 (mixed)
mixed: GGGUAGCCGGAGGAGTCAGTAAUCGGUACCC
modifications: 2'-OMe (M), 2'-F (F), PS (S) as marked; uppercase DNA [2'-OMe: 1-5,7,8,10,11,13,14,17,21,23-31; 2'-F: 18; PS: 6,15,19; DNA: 9,16,20]
B2: aptamer No. 54 (mixed)
RNA: GGGUAGCCGGAGGAGUCAGUAAUCGGUACCC
modifications: 2'-OMe (M), 2'-F (F), PS (S) as marked; uppercase DNA (U = deoxyuridine) [2'-OMe: 1,2,3,4,7,8,10,13,14,21,22,23,24,25,26,28; 2'-F: 11,17,18,27; PS: 6; dU: 16,20]
B3: aptamer No. 78 (mixed)
mixed: GGGUAGCCGGAGGAGTCAGTAAUCGGUACCC
modifications: 2'-OMe (M), 2'-F (F) as marked; uppercase DNA [2'-OMe: 1-5,7,8,10,13,14,21-31; 2'-F: 11,17,18; DNA: 9,16,20]
B4: aptamer No. 68 (mixed)
RNA: GGGUAGCCGGAGGAGUCAGUAAUCGGUACCC
modifications: 2'-OMe (M), 2'-F (F), PS (S) as marked; uppercase DNA [2'-OMe: 1-5,7,8,10,13,14,21-26,29-31; 2'-F: 11,16,17,18,20,27; PS: 6,15,19]
B5: aptamer No. 72 (mixed)
RNA: GGGUAGCCGGAGGAGUCAGUAAUCGGUACCC
modifications: 2'-OMe (M), 2'-F (F), PS (S) as marked; uppercase DNA [2'-OMe: 1-5,7,8,10,13,14,21-31; 2'-F: 11,16,17,18,20; PS: 6]
B6: aptamer No. 66 (mixed)
mixed: GGGUAGCCGGAGGAGTCAGTAAUCGGUACCC
modifications: 2'-OMe (M), 2'-F (F), PS (S) as marked; uppercase DNA [2'-OMe: 1-5,7,8,10,13,14,21-31; 2'-F: 11,17,18; PS: 6,15,19]
B7: aptamer No. 77 (mixed)
RNA: GGGUAGCCGGAGGAGUCAGUAAUCGGUACCC
modifications: 2'-OMe (M), 2'-F (F) as marked; uppercase DNA [2'-OMe: 1-5,7,8,10,13,14,21-26,29-31; 2'-F: 11,16,17,18,20,27; DNA: 28]
B8: aptamer No. 84 (mixed)
RNA: GGGUAGCCGGAGGAGUCAGUAAUCGGUACCC
modifications: 2'-OMe (M), 2'-F (F), PS (S) as marked; uppercase DNA [2'-OMe: 1-5,7,8,10,11,13,14,21-31; 2'-F: 16,17,18,20; PS: 6,15,19; DNA: 9]
B9: aptamer No. 70 (mixed)
RNA: GGGUAGCCGGAGGAGUCAGUAAUCGGUACCC
modifications: 2'-OMe (M), 2'-F (F), PS (S) as marked; uppercase DNA [2'-OMe: 1-5,7,8,10,13,14,21-26,28-31; 2'-F: 11,16,17,18,20,27; PS: 6,15,19]
B10: aptamer No. 58 (mixed)
mixed: GGGUAGCCGGAGGAGTCAGTAAUCGGUACCC
modifications: 2'-OMe (M), 2'-F (F), PS (S) as marked; uppercase DNA [2'-OMe: 1,2,3,4,7,8,10,13,14,19,21,22,23,24,25,26,28; 2'-F: 11,17,18,27; PS: 6,12,15]
B11: aptamer No. 73 (mixed)
RNA: GGGUAGCCGGAGGAGUCAGUAAUCGGUACCC
modifications: 2'-OMe (M), 2'-F (F), PS (S) as marked; uppercase DNA [2'-OMe: 1-5,7,8,10,13,14,21-31; 2'-F: 11,16,17,18,20; PS: 6,15,19]
B12: aptamer No. 80 (mixed)
RNA: GGGUAGCCGGAGGAGUCAGUAAUCGGUACCC
modifications: 2'-OMe (M), 2'-F (F), PS (S) as marked; uppercase DNA [2'-OMe: 1-5,7,8,10,13,14,21-26,29-31; 2'-F: 11,16,17,18,20,27; PS: 6; DNA: 9,28]
B13: aptamer No. 89 (mixed)
mixed: GGGUAGCCGGAGGAGTCAGTAAUCGGUACCC
modifications: 2'-OMe (M), 2'-F (F), PS (S) as marked; uppercase DNA [2'-OMe: 1-5,7,8,10,11,13,14,17,22-31; 2'-F: 18; PS: 6,15,19; DNA: 9,16,20]
B14: aptamer No. 76 (mixed)
RNA: GGGUAGCCGGAGGAGUCAGUAAUCGGUACCC
modifications: 2'-OMe (M), 2'-F (F) as marked; uppercase DNA [2'-OMe: 1-5,7,8,10,13,14,21-26,29-31; 2'-F: 11,16,17,18,20,27]
B15: aptamer No. 94 (mixed)
RNA: GGGUAGCCGGAGGAGUCAGUAAUCGGUACCC
modifications: 2'-OMe (M), 2'-F (F), PS (S) as marked; uppercase DNA [2'-OMe: 1-5,7,8,10,11,13,14,23-26,28-31; 2'-F: 16-18,20,27; PS: 6,15,19; DNA: 9]
B16: aptamer No. 60 (mixed)
mixed: GGGUAGCCGGAGGAGTCAGTAAUCGGUACCC
modifications: 2'-OMe (M), 2'-F (F), PS (S) as marked; uppercase DNA [2'-OMe: 1,2,3,4,5,7,8,10,13,14,19,21,22,23,24,25,26,28,29,30,31; 2'-F: 11,17,18,27; PS: 6,15]
B17: aptamer No. 59 (mixed)
mixed: GGGUAGCCGGAGGAGTCAGTAAUCGGUACCC
modifications: 2'-OMe (M), 2'-F (F), PS (S) as marked; uppercase DNA [2'-OMe: 1,2,3,4,7,8,10,13,14,19,21,22,23,24,25,26,28,29,30,31; 2'-F: 11,17,18,27; PS: 6,15]
B18: aptamer No. 91 (mixed)
mixed: GGGUAGCCGGAGGAGTCAGTAAUCGGUACCC
modifications: 2'-OMe (M), 2'-F (F), PS (S) as marked; uppercase DNA [2'-OMe: 1-5,7,8,10,11,13,14,17,23-31; 2'-F: 18; PS: 6,15,19; DNA: 9,16,20]
B19: aptamer No. 79 (ssRNA)
RNA: GGGUAGCCGGAGGAGUCAGUAAUCGGUACCC
modifications: 2'-OMe (M), 2'-F (F) as marked [2'-OMe: 1-5,7,8,10,13,14,21-31; 2'-F: 11,16,17,18,20]
B20: aptamer No. 64 (mixed)
mixed: GGGUAGCCGGAGGAGTCAGTAAUCGGUACCC
modifications: 2'-OMe (M), 2'-F (F), PS (S) as marked; uppercase DNA [2'-OMe: 1,2,3,4,5,7,8,10,13,14,17,21,22,23,24,25,26,28,29,30,31; 2'-F: 11,18,27; PS: 6,15,19]
B21: aptamer No. 82 (mixed)
mixed: GGGUAGCCGGAGGAGTCAGTAAUCGGUACCC
modifications: 2'-OMe (M), 2'-F (F), PS (S) as marked; uppercase DNA [2'-OMe: 1-5,7,8,10,11,13,14,21-31; 2'-F: 17,18; PS: 6,15,19; DNA: 9,16,20]
B22: aptamer No. 75 (mixed)
mixed: GGGUAGCCGGAGGAGTCAGTAAUCGGUACCC
modifications: 2'-OMe (M), 2'-F (F) as marked; uppercase DNA [2'-OMe: 1-5,7,8,10,13,14,21-26,28-31; 2'-F: 11,17,18,27]
B23: aptamer No. 93 (mixed)
RNA: GGGUAGCCGGAGGAGUCAGUAAUCGGUACCC
modifications: 2'-OMe (M), 2'-F (F), PS (S) as marked; uppercase DNA [2'-OMe: 1-5,7,8,10,11,13,14,21,23-26,28-31; 2'-F: 16-18,20,27; PS: 6,15,19; DNA: 9]

This data set concerns the target T1, IL-17. Kind of data set: SPR; IL-17 150 nM, aptamer 12.5 or 50 nM. As to conditions: chain copies: 2. As for the experimental part:
Whether the synthesized aptamers inhibit the binding of IL-17 and IL-17 receptor was evaluated by the surface plasmon resonance method.
For the measurement, BIAcore T100 manufactured by GE Healthcare Bio Sciences was used. […] As an analyte, IL-17 (150 nM) and each aptamer (12.5 or 50 nM) shown by Table 3 were mixed, maintained for 15 min and after that the mixture was flown.
(In general: Surface plasmon resonance follows binding to a sensor surface in real time, without labels.)
As to B1, the binding signal was 41.2 % IL-17/IL-17R binding remaining.

Consider B2, for which the binding signal was 25.1 % IL-17/IL-17R binding remaining.

Turning to B3, the binding signal was 23.3 % IL-17/IL-17R binding remaining.

As for B4, the binding signal is 37 % IL-17/IL-17R binding remaining.

As to B5, the binding signal is 26.1 % IL-17/IL-17R binding remaining.

B6: the binding signal was 28.7 % IL-17/IL-17R binding remaining.

Turning to B7, the binding signal is 23.9 % IL-17/IL-17R binding remaining.

As to B8, the binding signal is 27.7 % IL-17/IL-17R binding remaining.

B9: the binding signal is 35 % IL-17/IL-17R binding remaining.

As to B10, the binding signal was 33.7 % IL-17/IL-17R binding remaining.

Regarding B11, the binding signal was 32 % IL-17/IL-17R binding remaining.

B12: the binding signal was 25.3 % IL-17/IL-17R binding remaining.

For the molecule B13, the binding signal was 35.1 % IL-17/IL-17R binding remaining.

Take B14: the binding signal is 24.1 % IL-17/IL-17R binding remaining.

Turning to B15, the binding signal was 29.3 % IL-17/IL-17R binding remaining.

For B16, the binding signal was 31.9 % IL-17/IL-17R binding remaining.

B17: the binding signal is 36.5 % IL-17/IL-17R binding remaining.

For B18, the binding signal is 35.1 % IL-17/IL-17R binding remaining.

Regarding B19, the binding signal is 28.2 % IL-17/IL-17R binding remaining.

Consider B20, for which the binding signal was 29.3 % IL-17/IL-17R binding remaining.

As to B21, the binding signal is 5.28 % IL-17/IL-17R binding remaining.

Turning to B22, the binding signal was 21.6 % IL-17/IL-17R binding remaining.

Turning to B23, the binding signal was 30.6 % IL-17/IL-17R binding remaining.

(Values after patent publication US20160046944, “APTAMER TO IL-17 AND USE THEREOF” (THE UNIVERSITY OF TOKYO, published 2016).)
